{"source": "patent US20240124857A1", "about": "“COMPOSITION FOR GUT HEALTH” (DUPONT NUTRITION BIOSCIENCES APS, priority 2021, published 2024)", "key": {"[1]": {"assay": "Enzyme activity towards ATP at pH 3 to 9 (malachite green phosphate detection)", "format": "biochemical", "details": "FIG. 1; 250 μM ATP, 5 mM CaCl2, pH 3 to 9", "description": "(§1) Enzyme activity towards ATP or ADP at pH 3 to 9: The ability of candidate enzymes to degrade ATP or ADP to AMP and free phosphate (Pi) was measured using a standard malachite green phosphate detection kit (Sigma Aldrich cat no. MAK307). The enzyme reactions were carried out in 96-well plates with a total volume of 150 μL and contained 250 μM of a substrate, 50 mM of a buffer, 5 mM CaCl2, and a variable concentration of enzyme. The substrate was ATP or ADP. The buffer was glycine (pH 3), acetate (pH 4, 4.5, 5), bis-Tris (pH 5.5, 6, 6.5), or Tris (pH 7, 8, 9). The concentration of enzyme varied from about 1 μg/mL to 1 ng/mL and was adjusted based on the activity of the enzyme so that the amount of phosphate released during the assay was with the dynamic range of the assay (5-100 μM phosphate). The enzyme concentration was determined by the absorbance at 280 nm and using the predicted molecular weight and molar extinction coefficient to calculate the concentration. […] The malachite green reaction mixture was allowed to rest at room temperature for 45-60 min and the absorbance at 620 nm was measured. Lastly, the absorbance of the phosphate standards were used to convert the absorbance readings of each sample into phosphate concentrations and the negative control was subtracted from each reaction."}, "[2]": {"assay": "ATPase activity at 0.05 ppm enzyme on 0.1 mM ATP (absorbance 620 nm)", "format": "biochemical", "outline": "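Enzyme at 0.05 ppm with 0.1 mM ATP in 50 mM MES buffer, pH 6 and pH 5, with 5 mM CaCl2; reaction stopped after 5 min. Released phosphate detected by malachite green at 620 nm, water blank subtracted.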"}, "[3]": {"assay": "Enzyme activity towards ADP at pH 3 to 9 (malachite green phosphate detection)", "format": "biochemical", "details": "FIG. 2; 250 μM ADP, 5 mM CaCl2, pH 3 to 9", "description": "as §1"}, "[4]": {"tested_on": "commensals from HMT in Apc/minJ mice", "assay": "Engraftment of human microbiota transplant (HMT) commensals, 16S sequencing of day 13 fecal samples", "format": "in vivo", "details": "group 6 (Ab + HMT + Enz) compared with group 5 (Ab + HMT); FIG. 11", "description": "Apc/minJ mice have a mutated adenomatous polyposis coli gene and are more prone to develop colitis and tumors. In this Example, and using this model, 6-7 weeks old mice were subjected to an antibiotics cocktail of vancomycin, ampicillin, and neomycin (1 mg/mL) for 7 days in drinking water in order to induce a gut inflammatory response. Control mice (Groups 1 and 2) drank only distilled water. Groups 4 and 6 received CRC22110 ay 10 μg/dose enzyme by oral gavage and groups 5 and 6 received human microbiota transplant (HMT) by gavage. HMT was prepared by inoculating fecal sample from a healthy human donor in 20 ml of YCFAC media. Culture was grown anaerobically for 16 hrs at 37° C. Cells were collected by centrifugation and washed with PBS. Cells were resuspended in 10% glycerol and cell numbers were estimated by plating on YCFAC agar plates. Promotion of Engraftment: Fecal samples were collected from each mouse per day. Day 13 fecal samples were processed and 16S sequencing was done to evaluate the structure of microbiome. Group 5 was compared with group 6 and engraftment of HMT was evaluated. […]"}, "[5]": {"tested_on": "Acute DSS colitis in C57BL/6 mice", "assay": "Chemically-induced DSS colitis mouse model, disease activity index (DAI)", "format": "in vivo", "excerpt": "Acute DSS colitis was induced in C57BL/6 mice according to the previously published method with minor modification (Sann et al., 2013, Life Sci. April 9; 92(12):708-18). The mice were fed 3% (w/v) DSS dissolved in the drinking water on day one to day five. Fresh DSS solution was provided every other day. Control mice (Group 1) drank only distilled water. Groups 4 to 8 received candidate acid phosphatase enzymes by oral gavage and groups 9 to 12 received enzymes via catheter (Table 2). DAI was calculated as described earlier (Cooper et al., 1993, Laboratory investigation; a journal of technical methods and pathology. 69(2):238-49)."}, "[6]": {"assay": "Enzyme acid resistance: residual activity on ATP after incubation at pH 2", "format": "physicochemical", "details": "60 min in acid buffer, 50 mM glycine, 5 mM CaCl2; FIG. 4", "description": "Enzyme acid resistance: Candidate enzymes were tested for their ability to resist inactivation at low pH by incubating the enzymes in an “acid buffer” of 50 mM glycine and 5 mM CaCl2 at pH 2 for 15 or 60 minutes and comparing their activity to enzymes in a “control buffer” at their optimum pH. The optimum buffer for CRC21323 and CRC21322 was 50 mM acetate pH 4.5 with 5 mM CaCl2. The optimum buffer for all other enzymes was 50 mM bis-Tris pH 6.5 with 5 mM CaCl2. After incubating in the acidic glycine buffer, the enzyme mixtures were neutralized by mixing with an equal volume of neutralization buffer. The neutralization buffer for CRC21323 and CRC21322 was 100 mM acetate and 10 mM CaCl2 at pH 4.5. The neutralization buffer for the other enzymes was 100 mM bis-Tris and 10 mM CaCl2 at pH 6.5. Next, the acid-stressed and control enzyme were tested for their ability to release phosphate from ATP using the reaction conditions and malachite green assay as described in with the following changes. The only substrate tested was ATP. CRC21323 and CRC21322 were tested with a buffer of acetate pH 4.5, but all other enzymes were tested in a buffer of bis-Tris pH 6.5. After determining the concentration of phosphate in each reaction, the residual activity of each enzyme after 15 or 60 min incubation in the “acid buffer” was calculated by dividing the acid-stressed by the control enzyme phosphate concentrations for each enzyme."}, "[7]": {"assay": "Relative activity on ATP of CRC22110 single-site variants", "format": "biochemical", "details": "in comparison to CRC22110 wild type"}, "Apc/minJ mice": {"tested_on": "Apc/minJ mice", "assay": "Antibiotic-induced gut inflammation in Apc/minJ mice: DAI, colon length, histopathology", "format": "in vivo", "details": "antibiotics cocktail, 10 μg/dose oral gavage", "description": "Apc/minJ mice have a mutated adenomatous polyposis coli gene and are more prone to develop colitis and tumors. In this Example, and using this model, 6-7 weeks old mice were subjected to an antibiotics cocktail of vancomycin, ampicillin, and neomycin (1 mg/mL) for 7 days in drinking water in order to induce a gut inflammatory response. Control mice (Groups 1 and 2) drank only distilled water. Groups 4 and 6 received CRC22110 ay 10 μg/dose enzyme by oral gavage and groups 5 and 6 received human microbiota transplant (HMT) by gavage. HMT was prepared by inoculating fecal sample from a healthy human donor in 20 ml of YCFAC media. Culture was grown anaerobically for 16 hrs at 37° C. Cells were collected by centrifugation and washed with PBS. Cells were resuspended in 10% glycerol and cell numbers were estimated by plating on YCFAC agar plates.\nDisease Severity: Disease severity was scored using a clinical disease activity index (DAI), calculated as previously described using the following parameters: stool consistency, presence or absence of fecal blood and weight loss (Cooper et al., 1993, Laboratory investigation; a journal of technical methods and pathology. 69(2):238-49). The mice were killed on days 12 and 16, colons were measured, and the tissue was prepared for histopathological studies. The colon was fixed in 10% formaldehyde-saline. Hematoxylin and eosin stain (HE)-stained sections are graded based on a scoring system adapted from Burich et al., 2001, Am. J. Physiol. Gastrointest. Liver Physiol. 281:G764-G778 and Hausmann et al., 2007, Clin Exp Immunol. 2007 May; 148(2):373-81. Histology scoring is performed, and a combined score of inflammatory cell infiltration and tissue damage is determined for all the groups."}}}
{"molecule": "CRC22110: GDA1/CD39 family enzyme, accession EKE69473.1, SEQ ID NO:9 (predicted mature), SEQ ID NO:1 (protein, listed as Gallaecimonas xiamenensis) ADKPACRAVFDAGSSGTRLFLYVQQEGGWQPWPGAKLGALADPVRQHQGPKAMAALAADLANSLEALRQDGPTNSEGQPRWQGFDWQQACRLQSVSVLATAGMRLAEQQDPVASVALWQEVQQALAGLLGPAVAIDARTLTGFEEGFYAWLAARARLGRSDMGIVEMGGASSQVAFPCPACDRADDAVQQVRLEGQTLDFYSYSFLGLGQDEAPKVLGVPHACRYGAGVKDPNWQLGQCQAQLPLTLGRALKDPYNFQGQGQGGYRQVPTEKAGVKDWLLTGAFQYNTPDQLDSCCLNQGQCYQPSTACFRVAYLPLYLDSLGVDPHSPDLDVSWTLGAVLCRNEQCLAPSKPPCRWRKAGCLAPSVGDGRPEGRPGQQPGGVQHRQH", "values": [{"measurement": "specific activity on ATP over a range of pHs", "setting": "[1]", "value": "most active enzyme"}, {"measurement": "Activity on ATP (absorbance at 620 nm, blank subtracted), pH 5.0", "setting": "[2]; 50 mM IVIES buffer pH 5", "value": 0.60}, {"measurement": "Activity on ATP (absorbance at 620 nm, blank subtracted), pH 6.0", "setting": "[2]; 50 mM IVIES buffer pH 6", "value": 0.37}, {"measurement": "specific activity on ADP over a range of pHs", "setting": "[3]", "value": "most active enzyme"}, {"measurement": "engraftment of commensals from HMT", "setting": "[4]", "value": "better engraftment of several commensals from HMT"}, {"measurement": "reduction in DAI score compared to control", "setting": "[5]; catheterized mice, test items via cecum BID, FIG. 6A, 6B", "value": 47, "unit": "%"}, {"measurement": "DAI score compared to CRCO2733", "setting": "[5]; non-catheterized mice, oral gavage BID, FIG. 5A, 5B", "value": "significant reduction"}, {"measurement": "residual activity after incubation at pH 2", "setting": "[6]", "value": "greatest resistance"}, {"measurement": "Relative activity (%) on ATP", "setting": "[7]", "value": 100, "unit": "%"}, {"measurement": "improvement in DAI score compared to control", "setting": "Apc/minJ mice; FIG. 8", "value": 25, "unit": "%"}, {"measurement": "colon length compared to control", "setting": "Apc/minJ mice; FIG. 9", "value": "significant improvement"}, {"measurement": "focal hyperplasia in the colon (histopathologic analysis)", "setting": "Apc/minJ mice; FIG. 10", "value": "absent"}]}
